Results: patent US20180021429A1, “ANTICANCER AGENTS OR ANTIMETASTATIC AGENTS USING FSTL1 AND COMBINATION DRUG THEREOF” (PHARMA FOODS INTERNATIONAL CO., LTD., priority 2015, published 2018)

Legend:
[1] = test system: induction of mesenchymal stem cells (MSCs) by FSTL1; assay: Inhibitory activity against induction of MSC by FSTL1, CD45-negative cells (Examples 6, 8, 12); type: cell-based, mouse; conditions: Example 8, FIG. 6A/36A; FSTL1 20 ng/mL; antibody 10 μg/mL; 8 days
Protocol: (§1) Mouse bone marrow cells prepared in the same way as in Example 4 were supplemented with 50 ng/mL (final concentration) of FSTL1 and 10 μg/mL of the anti-FSTL1 antibody (#5-2, #5-3, #5-8, #5-10, 45-43, #6-55, or #7-34) or a control antibody anti-DNP antibody and cultured under stimulation. 11 days thereafter, the number of cells was counted while the cells were stained with a PE-Cy5-labeled anti-CD45 antibody (BD Pharmingen/Becton, Dickinson and Company, Cat. No. 555484), and the content of CD45-negative cells reported to generally contain MSCs at a high rate was analyzed by flow cytometry using FACScan to calculate the percentage and number of MSCs per culture (FIG. 5A).
(§2) Mouse bone marrow cells prepared in the same way as in Example 4 were supplemented with 20 ng/mL (final concentration) of FSTL1 and 10 μg/mL of the anti-FSTL1 antibody (#5-2, #5-3, #5-8, #5-10, #5-43, #6-55, #8-1, #8-4, #8-7, and #8-8) or a control antibody anti-DNP antibody and cultured under stimulation. 8 days thereafter, the number of cells was counted while the cells were stained with a PE-Cy5-labeled anti-CD45 antibody, and the content of CD45-negative cells was analyzed by flow cytometry using FACScan to calculate the percentage and number of MSCs per culture (FIG. 6A).
as §2, with “(#5-2,” for “(#5-2, #5-3,”, “#5-8,” for “#5-8, #5-10, #5-43,”, “#6-55, #7-34,” for “#6-55,”, “#8-7, or” for “#8-7, and”, “(FIG. 7).” for “(FIG. 6A).”
as §1, with “35A).” for “5A).”
as §2, with “36A).” for “6A).”
as §2, with “(#5-2,” for “(#5-2, #5-3,”, “#5-8,” for “#5-8, #5-10, #5-43,”, “#6-55, #7-34,” for “#6-55,”, “#8-7, or” for “#8-7, and”, “(FIG. 37).” for “(FIG. 6A).”

FSTL1 = molecular target: T1, FSTL1 (Homo sapiens, UniProt Q12841); assay: Inhibition of MSC induction by FSTL1 in mouse bone marrow cells, CD45-negative cells (Examples 6, 8, 12); type: cell-based; parameters: purchased R&D Systems, Inc. 1694-FN-050; conditions: Example 8; FSTL1 20 ng/mL, antibody 10 μg/mL, 8 days
T1 sequence (Q12841 21-308): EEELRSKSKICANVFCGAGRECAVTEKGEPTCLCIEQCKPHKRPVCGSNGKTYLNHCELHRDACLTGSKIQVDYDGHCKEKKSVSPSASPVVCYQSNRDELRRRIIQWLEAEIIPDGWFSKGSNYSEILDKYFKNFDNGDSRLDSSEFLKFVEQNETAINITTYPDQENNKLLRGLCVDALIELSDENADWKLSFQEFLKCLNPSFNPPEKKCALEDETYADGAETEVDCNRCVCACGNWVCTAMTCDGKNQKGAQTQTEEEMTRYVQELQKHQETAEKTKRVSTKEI
Protocol: as §1, with “CD45− negative” for “CD45-negative”, “67A).” for “5A).”
as §2, with “CD45− negative” for “CD45-negative”, “68A).” for “6A).”
as §2, with “(#5-2,” for “(#5-2, #5-3,”, “#5-8,” for “#5-8, #5-10, #5-43,”, “#6-55, #7-34,” for “#6-55,”, “#8-7, or” for “#8-7, and”, “of CD45− negative” for “of CD45-negative”, “(FIG. 69).” for “(FIG. 6A).”

inhibitory activity against the expansion of CD45-negative cells by FSTL1 (FSTL1): Inhibitory activity was confirmed
B1: #8-8: chicken-mouse chimeric anti-FSTL1 antibody clone; variable regions SEQ ID NO: 803 (light), 805 (heavy) (antibody, V domains shown)
VH: AVTLDESGGGLQTPGGALSLVCKGSGFTFSSFNMFWVRQAPGKGLEWVAGIGKDGVPKYGAAVDGRATISKDNGQSTMRLQLNNLRAEDTGTYYCAKAAGGCSYGWCGAYTGDIDTWGHGTEVIVSS
VL: ASTQPSSVSANPGEAVKITCSGGSGSYYGWYQQKSPGSAPVTVIYNNNQRPSDIPSRFSGSKSGSTATLTITGVQVEDEAVYFCGGYDSSTGHGGIFGAGTTLTVL
modifications: mouse constant regions
inhibitory activity against the expansion of CD45-negative cells by FSTL1 [1]: Inhibitory activity was confirmed
